Reference: paper PMC10950542 (Nature structural & molecular biology, 2024)
Read-outs that look alike come from different tables or passages of the source.

B1: T4 bacteriophage clamp-loader ATPase subunit gp44 (wild type) (natural protein)
chain: MITVNEKEHILEQKYRPSTIDECILPAFDKETFKSITSKGKIPHIILHSPSPGTGKTTVAKALCHDVNADMMFVNGSDCKIDFVRGPLTNFASAASFDGRQKVIVIDEFDRSGLAESQRHLRSFMEAYSSNCSIIITANNIDGIIKPLQSRCRVITFGQPTDEDKIEMMKQMIRRLTEICKHEGIAIADMKVVAALVKKNFPDFRKTIGELDSYSSKGVLDAGILSLVTNDRGAIDDVLESLKNKDVKQLRALAPKYAADYSWFVGKLAEEIYSRVTPQSIIRMYEIVGENNQYHGIAANTELHLAYLFIQLACEMQWK
B2: T4 bacteriophage clamp-loader ATPase subunit gp44 D110C (natural protein)
chain: MITVNEKEHILEQKYRPSTIDECILPAFDKETFKSITSKGKIPHIILHSPSPGTGKTTVAKALCHDVNADMMFVNGSDCKIDFVRGPLTNFASAASFDGRQKVIVIDEFCRSGLAESQRHLRSFMEAYSSNCSIIITANNIDGIIKPLQSRCRVITFGQPTDEDKIEMMKQMIRRLTEICKHEGIAIADMKVVAALVKKNFPDFRKTIGELDSYSSKGVLDAGILSLVTNDRGAIDDVLESLKNKDVKQLRALAPKYAADYSWFVGKLAEEIYSRVTPQSIIRMYEIVGENNQYHGIAANTELHLAYLFIQLACEMQWK
B5: T4 bacteriophage sliding clamp (gp45) (natural protein)
chain: MKLSKDTTALLKNFATINSGIMLKSGQFIMTRAVNGTTYAEANISDVIDFDVAIYDLNGFLGILSLVNDDAEISQSEDGNIKIADARSTIFWPAADPSTVVAPNKPIPFPVASAVTEIKAEDLQQLLRVSRGLQIDTIAITVKEGKIVINGFNKVEDSALTRVKYSLTLGDYDGENTFNFIINMANMKMQPGNYKLLLWAKGKQGAAKFEGEHANYVVALEADSTHDF

How the values were obtained:
crystal structure [1] = target: the molecule itself; assay: crystal structure
crystal structure [2] = target: the molecule itself; assay: crystal structure; remark: listed apart in the source
[3] = target: B2; assay: crystal structure
[4] = target: B5; assay: cryo-EM structure
[5] = target: B1; assay: cryo-EM structure
[6] = target: T1, T4 clamp loader (gp44/gp62), wild type;T4 sliding clamp gp45 (bacteriophage T4;bacteriophage T4, UniProt P04526;P04527;P04525 1-319;1-187;1-228, |); assay: fluorescence anisotropy
T1 sequence 1: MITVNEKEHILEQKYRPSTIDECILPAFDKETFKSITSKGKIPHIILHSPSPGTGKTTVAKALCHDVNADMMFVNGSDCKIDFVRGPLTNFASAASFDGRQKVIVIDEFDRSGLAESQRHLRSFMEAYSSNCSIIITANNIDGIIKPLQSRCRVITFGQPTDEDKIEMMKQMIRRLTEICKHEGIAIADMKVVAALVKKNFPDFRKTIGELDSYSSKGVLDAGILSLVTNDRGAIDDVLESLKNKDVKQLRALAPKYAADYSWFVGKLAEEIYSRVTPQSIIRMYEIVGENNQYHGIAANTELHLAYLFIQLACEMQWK
T1 sequence 2: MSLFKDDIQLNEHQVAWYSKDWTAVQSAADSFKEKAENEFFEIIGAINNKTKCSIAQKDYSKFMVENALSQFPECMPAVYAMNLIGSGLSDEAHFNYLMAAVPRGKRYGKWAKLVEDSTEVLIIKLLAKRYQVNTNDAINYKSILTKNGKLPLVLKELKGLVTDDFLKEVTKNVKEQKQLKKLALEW
T1 sequence 3: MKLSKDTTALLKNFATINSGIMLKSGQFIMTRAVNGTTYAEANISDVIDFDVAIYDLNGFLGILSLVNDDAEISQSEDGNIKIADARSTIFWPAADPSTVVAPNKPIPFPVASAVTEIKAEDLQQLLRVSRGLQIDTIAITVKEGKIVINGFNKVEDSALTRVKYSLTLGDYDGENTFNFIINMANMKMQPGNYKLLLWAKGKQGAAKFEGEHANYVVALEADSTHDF

[7] = target: T2, T4 clamp loader D110C/G143R;T4 sliding clamp gp45 (bacteriophage T4;bacteriophage T4, UniProt P04526;P04527;P04525 1-319;1-187;1-228, D110C;G143R|); assay: fluorescence anisotropy
T2 sequence 1: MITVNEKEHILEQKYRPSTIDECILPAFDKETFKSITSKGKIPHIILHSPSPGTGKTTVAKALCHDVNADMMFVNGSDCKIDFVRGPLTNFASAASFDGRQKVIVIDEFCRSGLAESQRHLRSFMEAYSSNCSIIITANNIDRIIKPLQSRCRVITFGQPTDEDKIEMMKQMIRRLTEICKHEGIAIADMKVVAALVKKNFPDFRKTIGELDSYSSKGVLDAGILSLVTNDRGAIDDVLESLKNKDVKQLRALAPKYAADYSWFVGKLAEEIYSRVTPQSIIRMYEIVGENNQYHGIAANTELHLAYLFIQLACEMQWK
T2 sequence 2: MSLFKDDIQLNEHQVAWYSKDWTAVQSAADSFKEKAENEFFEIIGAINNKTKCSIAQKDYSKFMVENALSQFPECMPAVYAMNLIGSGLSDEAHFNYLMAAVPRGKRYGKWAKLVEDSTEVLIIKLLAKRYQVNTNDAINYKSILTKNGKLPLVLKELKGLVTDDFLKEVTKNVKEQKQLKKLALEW
T2 sequence 3: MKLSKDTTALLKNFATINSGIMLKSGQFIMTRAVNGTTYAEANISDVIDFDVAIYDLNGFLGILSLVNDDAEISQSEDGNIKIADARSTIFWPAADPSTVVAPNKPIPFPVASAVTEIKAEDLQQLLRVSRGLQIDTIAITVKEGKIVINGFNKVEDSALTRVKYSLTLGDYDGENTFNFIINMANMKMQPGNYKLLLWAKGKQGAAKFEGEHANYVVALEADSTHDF

[8] = target: T3, T4 clamp loader D110C/P50K (P50K*);T4 sliding clamp gp45 (bacteriophage T4;bacteriophage T4, UniProt P04526;P04527;P04525 1-319;1-187;1-228, P50K;D110C|); assay: fluorescence anisotropy
T3 sequence 1: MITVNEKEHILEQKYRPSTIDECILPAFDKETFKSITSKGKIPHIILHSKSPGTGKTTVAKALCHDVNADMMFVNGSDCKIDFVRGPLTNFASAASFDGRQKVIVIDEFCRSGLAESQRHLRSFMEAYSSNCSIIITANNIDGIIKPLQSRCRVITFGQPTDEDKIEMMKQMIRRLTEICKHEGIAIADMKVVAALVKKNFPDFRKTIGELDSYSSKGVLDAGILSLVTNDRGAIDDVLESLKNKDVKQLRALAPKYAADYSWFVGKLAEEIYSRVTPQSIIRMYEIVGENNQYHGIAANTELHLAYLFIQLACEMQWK
T3 sequence 2: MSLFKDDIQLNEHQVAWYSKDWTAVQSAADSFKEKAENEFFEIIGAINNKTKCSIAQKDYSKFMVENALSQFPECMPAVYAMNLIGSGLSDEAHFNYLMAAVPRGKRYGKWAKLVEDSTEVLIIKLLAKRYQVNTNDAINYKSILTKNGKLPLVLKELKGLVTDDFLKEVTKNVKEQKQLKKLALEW
T3 sequence 3: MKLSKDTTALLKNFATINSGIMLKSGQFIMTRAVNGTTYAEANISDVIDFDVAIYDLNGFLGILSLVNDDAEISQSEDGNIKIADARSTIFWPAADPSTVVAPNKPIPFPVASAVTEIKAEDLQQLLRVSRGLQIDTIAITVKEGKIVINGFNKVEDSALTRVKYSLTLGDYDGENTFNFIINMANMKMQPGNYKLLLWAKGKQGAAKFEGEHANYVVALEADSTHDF

B1
binding result (crystal structure [1]): binds

B2
binding result (crystal structure [2]): binds

B3: T4 bacteriophage clamp-loader clasp subunit gp62 (natural protein)
chain: MSLFKDDIQLNEHQVAWYSKDWTAVQSAADSFKEKAENEFFEIIGAINNKTKCSIAQKDYSKFMVENALSQFPECMPAVYAMNLIGSGLSDEAHFNYLMAAVPRGKRYGKWAKLVEDSTEVLIIKLLAKRYQVNTNDAINYKSILTKNGKLPLVLKELKGLVTDDFLKEVTKNVKEQKQLKKLALEW
binding result [3]: binds | binding result [4]: binds | binding result [5]: binds

B4: TAMRA primer-template DNA (dsDNA)
DNA 1: TTTTTTTTTTTTATGTACTCGTAGTGTCTG
DNA 2: GCAGACACTACGAGTACATA
Kd [6]: ~40 nM | binding result [7]: binds | binding result [8]: binds

B5
binding result (crystal structure [2]): binds
